Experimental data published in patent US20220098328A1, “ANTIBODIES TO M(H)DM2/4 AND THEIR USE IN DIAGNOSING AND TREATING CANCER” (NomoCan Pharmaceuticals LLC, priority 2017, published 2022).
Entries after “also recorded” stand apart in the source; their conditions may differ. Blank lines part the entries; values can stand above or below the molecule they belong to.

Assays:
[1] = biological target: NMC-P1 peptide (SEQ ID NO:1), amino acids 1-15 of HDM2 (Homo sapiens, UniProt Q00987); assay: Peptide-ELISA; assay type: binding; details: for binding to NMC-P1 peptide: peptide-ELISA, 5 μg/ml peptide on plate, OD 450 nm
Procedure: (§1) Peptide-ELISA Methodology: 5 μg/ml of NMC-P1, NMC-P2 or NMC-P3 peptide antigen was dried onto a 96-well ELISA plate overnight. Plates were then blocked with 5% BSA in 1× phosphate-buffered saline (PBS) (100 μl/well) for 2 hours at room temperature. Microplate wells were then washed 5 times with 300 μl of ice cold 1×PBS. Appropriate dilutions of monoclonal antibodies NMC-103, NMC-204 or NMC-303 in 1% bovine serum albumin (BSA) in PBS solution were then incubated with their corresponding peptides (NMC-P1, NMC-P2 or NMC-P3, respectively) at room temperature. After 2 hours, wells were washed 5 times with 300 μl ice-cold PBS/well and 100 μl secondary antibody (HRP-labeled Goat anti-Mouse F(ab′)2 H&L cross-adsorbed secondary antibody (HRP-GaM F(ab′)2), ThermoFisher, Cat. No. A24524) diluted 1:2500 to 1:5000 in PBS-1% BSA solution were added and the incubation continued at room temperature. After 1 hour, the wells were washed again 5 times with 200 μl of ice-cold PBS and 50 μL of the TMB Substrate Solution (1-Step™ Ultra TMB-ELISA, ThermoFisher, Cat. No. 34028) were added to each well and color was allowed to develop for 30 minutes at room temperature. The reaction was stopped by addition of 50 μL of stop solution (ThermoFisher, Cat. No. SS04) to each well and absorbance of each well was read immediately for optical density (OD) at 450 nm.
Competition assays: As for peptide antigen binding competition experiments, […] of mAb NMC-103 was pre-incubated with 10 μl/ml of NMC-P1, NMC-P2 or NMC-P3 for 1 hour at room temperature. MAb NMC-103 was then incubated with ELISA plates coated with NMC-P1 as described above.

[2] = biological target: NMC-P2 peptide (SEQ ID NO:2), amino acids 15-25 of HDM2 (Homo sapiens, UniProt Q00987); assay: Peptide-ELISA; assay type: binding; details: 5 μg/ml peptide on plate, OD 450 nm
Procedure: as §1

[3] = system: mouse colon cancer MC-38 cells; assay: MC-38 syngeneic mouse model of colon cancer; assay type: in vivo; details: for reduction in tumor volume over the same time period: 0.4 mg/kg i.p. 3 times a week for 3 weeks
Procedure: Methodology used (Syngeneic Mouse Models of lung, colon and pancreatic cancer): To investigate the anti-tumor effects of HDM2-specific antibodies on lung, colon and pancreatic tumors in vivo, three well-known syngeneic mouse models of lung, colon and pancreatic cancer were used (Sharma et al., 1999, J. Immunol. 163 (9):5020-5028; McIntyre, 2015, Bioassays 37(8):909-920; Li, et al., 2015, Sci. Rep. 5:7856). Subcutaneous tumors were prepared by implanting either mouse Lewis Lung cancer LL/2 cells (2.5×10^5 cells/mouse), mouse colon cancer MC-38 cells (5×10^5 cells/mouse) or mouse pancreatic cancer Panc-2 cells (2×10^6 cells/mouse) in the right flanks of 8-week-old female C57BL/6 mice (n=6-7). The mice were returned to their respective cages after tumor implantation. From day 7 after tumor implantation, the tumor volumes were measured 2 times/week with a digital caliper. In the case of MC-38 and Panc-2 study, treatment started when the tumors reached an average of 70-80 mm^3. In the case of LL/2 study, tumor cell inoculation and treatment were initiated simultaneously. Mice were micro-chipped and registered following tumor implantation. Tumor volume measurements and body weights were recorded and mice were randomized into groups that received: A) mAb NMC-103 at 0.4 mg/kg (3 times a week for 3 weeks), 2 mg/kg (2 times a week for 3 weeks), or 4 mg/kg (2 times a week for 3 weeks); B) NMC-204 at 0.4 mg/kg (3 times a week for 3 weeks); C) isotype control mouse IgG1 (Abcam, Cat. No. ab18447) or IgG3 (Abcam, Cat. No. ab18392) at 0.4 mg/kg (3 times a week for 3 weeks) or 4 mg/kg (2 times a week for 3 weeks); D) Gemcitabine (25 mg/kg) and nab-paclitaxel (5 mg/kg) 2 times a week for 3 weeks; or E) a combination of gemcitabine (25 mg/kg), nab-paclitaxel (5 mg/kg) and mAb NMC-103 (2 mg/kg; 2 times a week for 3 weeks) or ([…]; […]). All tumors were injected subcutaneously and all treatments were performed by intraperitoneal injection. Any mouse displaying prolonged adverse clinical signs, or with body weight loss exceeding 15% relative to body weight at day 0, was euthanized. Tumor measurements from post-treatment with HDM2-specific antibodies versus isotype control mouse antibodies versus standard of care treatment (gemcitabine and nab-paclitaxel) were made, and results are presented in FIGS. 16-19.

[4] = competition: 1 μl/ml mAb pre-incubated with 10 μl/ml peptide for 1 hour

B1: NMC-103: mouse monoclonal antibody of the IgG1 isotype that binds to NMC-P1 (SEQ ID NO:1); VH SEQ ID NO:36, VL SEQ ID NO:37 (antibody, V domains shown)
VH: EVQLQESGGGLVQPGGSLRLSCTTSGFTFTHYYMSWVRQPPGKALEWLGFIRNKAKGYTAEYSASVKGRFTISRDNSQSILYLQMNTLRPEDSATYYCARDIGDNWGQGTLVTVSS
VL: DIVMTQAAFSNPVTLGTSASISCRSSKNLLHSNGITYLYWYLQRPGQSPQLLISRVSNLASGVPNRFSGSESGTDFTLRISRVEAEDVGVYFCAQLLELPYTFGGGTKLEIK
modifications: mAb NMC-103 Heavy Chain Variable Region; mAb NMC-103 Light Chain Variable Region
binding of mAb to plate-bound NMC-P1 after pre-incubation with NMC-P1 peptide [1, 4]: abolished the binding
binding of mAb to plate-bound NMC-P1 after pre-incubation with NMC-P2 peptide [1, 4]: did not affect the binding
binding of mAb to plate-bound NMC-P1 after pre-incubation with NMC-P3 peptide [1, 4]: did not affect the binding
binding to NMC-P1 peptide [1]: bound; also recorded: strong binding
binding to NMC-P2 peptide [2]: did not bind
average tumor size ([3]; MC-38, n=5, 10 mg/kg 2 times per week, by day 12): 210 mm^3
reduction in tumor volume over the same time period ([3]; MC-38): significant (p<0.005) reduction in tumor volume
tumor reduction at 10 mg/kg compared to 0.4 mg/kg ([3]; MC-38, 10 mg/kg two times per week for three weeks vs FIG. 17): greater tumor reduction
tumor volume ([3]; MC-38 s.c. in C57BL/6, 0.4 mg/kg i.p. 3 times a week for 2.5 weeks, treated for 18 days (NMC-103 study)): 1268 mm^3
tumor cells stained positive for Ki67 ([3]; MC-38 tumors, immunohistochemical staining, NMC-103 study, 0.4 mg/kg): 5%

binding to NMC-P1 peptide [1]: did not bind
binding to NMC-P2 peptide [2]: bound; also recorded: strong binding
B2: NMC-204: mouse monoclonal antibody of the IgG3 isotype that binds to NMC-P2 (SEQ ID NO:2); VH SEQ ID NO:38, VL SEQ ID NO:39 (antibody, V domains shown)
VH: EVQLQESGSVLVRPGASVKLSCKASGDTLSGSWMHWAMQRPGQGLEWIGEIHLNRGTTNYNEKFKGKATVTVDTSSSTAYVDLSSLTSEDSAVYYCARSPGFAYWGQGTLVTVSA
VL: GIVMTQAAPSVPVTPGESVSISCRSSKSLLHSNGNSYLYWFLQRPGQSPQLLIYRMSNLASGVPDRFSGSGSGTAFTLRITRVEAEDVGVYYCMQHLEYPFTFGSGTKLEIK
modifications: mAb NMC-204 Heavy Chain Variable Region; mAb NMC-204 Light Chain Variable Region
reduction in tumor volume over the same time period ([3]; MC-38): significant (p<0.005) reduction in tumor volume
tumor volume ([3]; MC-38, 0.4 mg/kg i.p. 3 times a week for 3 weeks (NMC-204 study)): 1670 mm^3
tumor cells stained positively for Ki67 ([3]; MC-38 tumors, NMC-204 study, 0.4 mg/kg): 30%
